Experimental data taken from patent US20180231562A1 (UCB, published 2018).

Experiments:
[1] = biological target: T1, human TNFα in complex with compound (15) (human, UniProt P01375 77-233); assay: SPR (BIAcore T200), against apo human TNFα
T1 construct: also called Human TNFα + compound 15; Human TNFα + compound (15)

[2] = biological target: T2, human TNFα in complex with compound (39) (human, UniProt P01375 77-233); assay: SPR (BIAcore T200), against apo human TNFα
T2 construct: also called Human TNFα + compound (39); compound-distorted human TNFα
T2 sequence (P01375 77-233 limits assumed, one chain of several): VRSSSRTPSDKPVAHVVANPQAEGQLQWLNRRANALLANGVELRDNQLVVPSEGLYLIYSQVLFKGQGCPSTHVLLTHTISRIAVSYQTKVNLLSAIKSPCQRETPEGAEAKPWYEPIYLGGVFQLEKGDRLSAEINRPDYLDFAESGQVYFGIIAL

T1 sequence (P01375 77-233 limits assumed, one chain of several): as above

B1: CA185_01979 (antibody, mouse IgG1, kappa, V domains shown)
VH: EVHLVESGPGLVKPSQSLSLTCSVTGYSITNSYWDWIRKFPGNKMEWMGYINYSGSTGYNPSLKSRISISRDTSNNQFFLQLNSITTEDTATYYCARGTYGYNAYHFDYWGRGVMVTVSS
VL: DIQMTQSPASLSASLEEIVTITCQASQDIGNWLSWYQQKPGKSPHLLIYGTTSLADGVPSRFSGSRSGTQYSLKISGLQVADIGIYVCLQAYSTPFTFGSGTKLEIKR
notes: also called CA185_01979.0; CA185_1979
- selective binding over apo human TNFα (log) [1]: > 2 log
- selective binding over apo human TNFα (log) [2]: > 2 log
